According to the nanobody polyreactivity screen of Harvey et al. (2022):

Assay: yeast display, Sf9 membrane polyspecificity reagent, FACS + sequencing; frameworks hold sequencing errors
In short: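 A nanobody's polyreactivity label depends on the gate it was sorted from. Yeast display cells were stained with 10% biotinylated, detergent-solubilized Sf9 membrane reagent for 1 hour at 4 °C, enriched on streptavidin microbeads and sorted by FACS. The low and high (top ~1%) gates were set on anti-HA fluorescence for expression and streptavidin fluorescence for reagent binding.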

| Sequence | polyreactivity (PSR sort gate) |
| --- | --- |
| QVQLVESAGGLVQAGGSLRLICDASGSTFGYYAIGWYRQAPGKEREVVAVINKSGGRTYYADSVKGRFTISRDNAKNTVYLQMNSLNPVDTAVYFCATRVTSTRHDYWGQGTQVTVSS | high polyreactivity |
| QVQLVESGGGLVQAGGSLRLSSAASGSIFGANAIGWYRQAPGKERELVAAISRRGRSTYYADSVKGRFTISRDNAKYTVYLQLNSLKPEDTAVYYSAAKRPQYYVQYGYWGQGTQVTVSS | high polyreactivity |
| QVQLVESGGGLVQAGGSLRLSCAASGSTLSSNAMGWYRQAPGKERELVAAINRRGGTYYADSVKGRFTISRDNAKNTVYLQMNSLKPEDTAVYYCAAASPYHEYDYWGQGTQVTVSS | low polyreactivity |
| QVQLVESGGGLVQAGGSLRLSCAASGLTFDAYAMGWYRQAPGKERELVAAISSGGNTYYADSVKGRFTISRDNAKNTVYLQMNSLKPEDTAVYYCNAVGYYKYFVLAYEYDYWGQGTQVTVSS | low polyreactivity |
| QVQLVESGGGLVQAGGSLRLSCAASGRIFRANAMGWYRQAPGKERELVAGITRRGGSTNYADSVKGRFTISRDNAKNTVYLQMNSLKPEDTAVYYCNRDVSLSTSIRMDYWGQGTQVTVSS | low polyreactivity |
| QVQLVESGGGLVQAGGSLRLSCAASGRIFQWYAMGWNRQAPGKERELVAAISWRGGSTYYADSVKGRFTISRDNAKNTVYLQMNSLKPEDTAVYYCNAVRRASSGYDYWGHGTQVTVSS | high polyreactivity |
| QDQLVESGGGLVQAGGSLRLSCAASGNNYWTNAMGWYRQAPGKERELVAAISWSGDSTYYADSVKGRFTISRDNAKNTVYLQLNSLKPEDTAVYYCAVLDVYRYRMDYWGQGTQVTVSS | low polyreactivity |
| QVQLVESGGGLVQAGGSLRLTCAASGRNFSQNAMGWYRQAPGKERELVAAISVTGGRTYYADSVKGRFTISRDNAKNTVYLQMNSLKPEDTAVYYCAKRTRSPGYYYWGQGTQVTVSS | high polyreactivity |
| QVQLQESGGGLVQAGGSLRLSCAASGSISRLDYRGWYRQASGKERELVAAIDNGSTTYYADSVKGRLTISRDNAKYTVYLQMNSLKPEDTAVYFCAAVRGRGGTHAYWGQGTQVTVSG | low polyreactivity |
| QVQLVESGGGLVQAGGSLRLSCAASGSIFVFYDMGWYRQAPGKERELVATISSGGGGTYYTDSVKGRFTISRDNAKNTVYLQMNSLKPEDTAVYYCAAEGDKYGKGYGYWGQGTQVTVSS | low polyreactivity |
| QVQLVESGGGLVQAGGSLRLSCAASGRIFRRNAMGWYRQAPGKERELVAGIDSSGGSTYYADSVKGRFTISRDNAKNSVYLQMNSLKPEDTAVYYCNAVGYSQGYDYWGQGTQVTVSS | high polyreactivity |
| QVQLVESGGGLVQAGGSLRLSCAASGFIFRPNAMGWYRQAPGKERELVAAITRDGDRTYYADSVKGRFTISRDNAKNTVYLQMNSLKPEETAVYYCAADVIQWWTRYYTWEYDYWGQGTQVTVSS | low polyreactivity |
| QVQLVESGGGLVQAGGSLRLSCAASGSTFFWYAMGRYRQAPGKERELVAAISKTGGSTYYADSVKGRFTISRDNAKNTFYLQMNSLKPEDTAVYYCNAVPYASKAARSFDYWGQGTQVTVSS | low polyreactivity |
| QVQLVESGGGLVQAGGSLRLSCAASGSIFPENAMGWYRQAPGKERELVAAITSSDSSTYYADSVKGRFTISRDNAKNTVYLHMNSLKPEDTAVYSCAAYRVGFRFREYYWGQGTQVTVSS | low polyreactivity |
| QVQLVESGGGLVQAGGSLRLSCAASGSTFQFYAMGWYRQAPGKEREFVAAITTRSGSTYYADSVKGRFTISRDTAKNTVYLQMNSQKPEDTAVYYCAAYIYGHSSDSVRYEYWGQGTQVTVSS | low polyreactivity |
| QVQLVESGVGLVQAGGSLRLSCAASGRTFVYAMGWYRQAPGKERELVAAISYNGGSTYYADSVKGRFTISRDNAKNTVYLQMNSLKPEDTAVYYCAADISVGRYGDMDYWGQGTQVTVSS | low polyreactivity |

| Sequence | polyreactivity (PSR sort gate) |
| --- | --- |
| QVQLVESGGGLVQAGGSLRLSCAASGFIFWSYAMGWYRQAPGKERELVAAIDLTGGSTYYADSVKGRFTISRDNAKNTVYLQMNSLKPEDTAVYYCNADGDTYAFTNSDSGFDYWGQGTQVSVSS | low polyreactivity |
| QVQLVESGGGLVQAGGSLRLSCAASGLIFKVYALGWYRQAPGQERELVAAITYSGGSTDYADSVKGRFTISRDNAKNTVYLQMNSLKPEDTAVYYCNVETVGHVNSYGYDYWGQGTQVTVSS | low polyreactivity |
| QVQLVESGGGLGQAGGSLRLICAASGRTFLYNAMGWYRQAPGNERELVASITSGGSTNYADSVKGRFTISRDNAKNTVNLQMNSVKPEDTAVYYCAADERRPYWQHSIGSGRPFDYWGQGTQVTVSS | low polyreactivity |
| QVQLVESGGGLVQAGGSLRLSCAASGSIFSGYVMGWYRQAPGKERELVAAIDNSSGSTYYADSVKGRFTISRDNAKNTVYLQMNSLKPEDTAVYYCAADYYSKAYSEYDYWGQGTQVTVSS | low polyreactivity |
| QVQLVESGGGLVQAGGSLRLSCAASGSIFYRYAMGWYRQAPGKERELVAAINDSGGGTYYADSVKGRFTISRDNAKNTVYLQMNSLKPEDTAVYYCAAATHNKHTARDDYWGQGTQVTVSS | low polyreactivity |
| QVQLVESGGGLVQAGGSLRLSCAASGSTIYFYAMGWYRQAPGKERELVAAITRSGSTYYADSVKGRFTISRDNAKNTVYLQLNSLKPEDTAVYYCNADQYYGCRYVYLRHYNYWGQGTQVTVSS | high polyreactivity |
| QVQLVESGGGLVQAGGSLRLSCAASGSIFPENAMGWYRQAPGKERELVAAITSSDSSTYYADSVKGRFTISRDNAKNTVYLQMNSLKPEDTAVYYCAAYRVGFRFREYYWGQGTQVTVSS | low polyreactivity |
| QVQLVESGGGLVQAGRSLRLSCAASGRTFGGNAMGWYRQAPGKERELVAAIDQSGGSTYYADSVKGRFTISRDNAKNTVYLQMNSLKPEDTAVYYCATHDGGTYYVREPNVKYDYWGQVTQVTVSS | low polyreactivity |
| QVQLVESGGCLVQAGGSLRLSCAASGSTIGVNAMGWYRQAPGKERELVAAISRGGGRTYYADSVKGRFTISRDNAKNTVYLQMNSLKPEDTAVYYCNTDFGARMGYCGQGTQVTVSS | high polyreactivity |
| QVQLQESGGGLVQAGGDLRLSCAASGNIFRDYIMGWYRQAPGKEREFVAGIDRGANTNYADSVKGRFTISRDNAKNTVYLQMNSLKQEDTAVYYCAVHTAIVPDFIYWGQGTQVTVSS | low polyreactivity |
| QVQLVESGGVLVQAGGSLRLSCAASGRTFRRNAMGWYRQAPGKERELVAGIRSSGGSTYYADSVKGRFTISRDNAKNTVYLQINSLKQEDTAVYYCNAVGRPRYGHGFDHWGQGTQVTVSS | high polyreactivity |
| QVQLVESGGGLVQAGGSLRLSCAASGSIFDTYAMGWYRQAPGKEREFVAAISRNGGSTYYADSVKGRFTISRDNAKNTVYLQMNSLKAEDTAVYYCATDKRHKFDYWGQGTQVTVSS | low polyreactivity |
| QVQLVESGGGLVQAGGSLRLSCAASGSISKGYAMGWYRQAPGKERELVARISGDGGSTYYADSVKGRFTISRDNAKNTVYLQMNSLKPEDTAVYYCNTRQQFTLTRGVFLHNYWGQGTQVTVSS | high polyreactivity |
| QVQLVESGGGLVQAAGSLRLSYAASGSTFVYNGMGSYRQAPAKERELVATISSTGSTNYADSVKGRFTISRDNAKNTVYLQMNSLKPEDTAVYYCATEYITYRAYDYWGQGTQVTVSS | low polyreactivity |
| QVQLVESGGGLVQAGGSLRLSCAASGITFIGYPMGWYRQAPGKERELVASITSGANTNYADSVKGRFTISRDNAKNTVYLQMNSLKPEDTAVYYCAAPEHGTYANILGEPLDYWGQGTQVTVSS | low polyreactivity |
| QVQLVESGGGLVQAGGSLRLSCAASGSIFQVNAMGWYRQAPGKERELVASITTSGGSTYYADSVKGRFTISRDNAKNTVYLQMNSLKPEDTAVYYCAADHWSQDYDYWGQGTQVTVSS | low polyreactivity |
